Test results taken from patent US20240034764A1.

Molecular target: IL-10Rα receptor on MC/9 mouse mast cells (mouse) (UniProt Q61727)
Assay: cell-based or functional assay

Chain of UniProt Q61727 (Q61727 17-575): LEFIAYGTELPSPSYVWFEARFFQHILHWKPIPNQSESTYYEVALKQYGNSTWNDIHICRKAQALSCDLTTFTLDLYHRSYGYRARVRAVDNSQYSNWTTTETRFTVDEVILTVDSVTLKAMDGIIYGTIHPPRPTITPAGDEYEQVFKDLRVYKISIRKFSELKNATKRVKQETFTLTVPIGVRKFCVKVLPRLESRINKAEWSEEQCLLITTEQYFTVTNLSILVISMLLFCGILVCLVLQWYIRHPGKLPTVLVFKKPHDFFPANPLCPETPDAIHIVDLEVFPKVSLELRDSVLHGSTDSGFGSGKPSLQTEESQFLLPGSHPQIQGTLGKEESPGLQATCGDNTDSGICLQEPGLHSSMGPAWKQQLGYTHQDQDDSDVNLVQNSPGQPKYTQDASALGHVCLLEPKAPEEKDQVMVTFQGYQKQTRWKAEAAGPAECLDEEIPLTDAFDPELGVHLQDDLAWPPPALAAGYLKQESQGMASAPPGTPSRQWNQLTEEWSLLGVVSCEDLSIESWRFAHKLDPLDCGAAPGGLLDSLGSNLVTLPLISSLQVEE

## recombinant human IL-10 (Peprotech catalog number 200-10) (from UniProt P22301 19-178) (ligand)
  half maximal effective concentration (EC50), proliferation of MC/9 cells in the presence of IL4 (Alamar Blue): 91.7 pM
